Laboratory results from patent US6294384, “Compositions and methods based upon an isoform of p53” (The Brigham and Women's Hospital Inc., dated 2001).

Molecular target: the molecule itself
Assay: yeast two-hybrid system and immunoprecipitation

B1: p35 isoform of p53 derived from rat cardiac myocytes (other)
chain: MEDSQSDMSIELPLSQETFSCLWKLLPPDDILPTTATGSPNSMEDLFLPQDVAELLEGPEEALQVSAPAAQEPGTEAPAPVAPASATPWPLSSSVPSQKTYQGNYGFHLGFLQSGTAKSVMCTYSISLNKLFCQLAKTCPVQLWVTSTPPPGTRVRAMAIYKKSQHMTEVVRRCPHHERCSDGDGLAPPQHLIRVEGNPYAEYLDDRQTFRHSVVVPYEPPEVGSDYTTIHYKYMCNSSCMGGMNRRPILTIITLEDSRSVGVSASACSES
- binding result: no binding
